The values that follow come from publication PMC5738261 (Journal of molecular biology, 2017).

The target in data set [1] is A3F-CD2 WT (human, UniProt Q8IUX4 190-373). Description: X-ray crystallography.
Data set [2] concerns the target T1, A3F-CD2 E251A K352A/K355A/K358A (human, UniProt Q8IUX4 190-373, E251A;K352A;K355A;K358A). Description: EMSA.
Data set [3] deals with the molecule itself. Description: dynamic light scattering.
Data set [4] deals with the molecule itself. Description: dynamic light scattering. This is another data set of the same source.
In data set [5] the target is T1, A3F-CD2 E251A K352A/K355A/K358A. Description: EMSA. The source holds these as a separate data set. A general note: A gel shift assay detects complexes by their altered migration in electrophoresis.

Read-outs that look alike come from different tables or passages of the source.

For orientation: stoichiometry N means a count of units in the complex or per binding partner.

Take TTTTTTTTTT (ssDNA) [10 nt poly-dT (crystal, DLS)]: the binding result in data set [1] is reported as “binds”.
Regarding TTTTTTTTTT (ssDNA) [10 nt poly-dT (FAM)], the binding result in data set [2] was “no binding”.

B1: wild-type hA3F-CD2 (APOBEC3F C-terminal catalytic domain, residues 190-373) (domain or fragment, human, UniProt Q8IUX4 190-373, looked up)
chain: NPMEAMYPHIFYFHFKNLRKAYGRNESWLCFTMEVVKHHSPVSWKRGVFRNQVDPETHCHAERCFLSWFCDDILSPNTNYEVTWYTSWSPCPECAGEVAEFLARHSNVNLTIFTARLYYFWDTDYQEGLRSLSQEGASVEIMGYKDFKYCWENFVYNDDEPFKPWKGLKYNFLFLDSKLQEILE
As to B1, the results for the “stoichiometry N” value in data set [3] and in data set [4] were 4 and 2, respectively.
Consider AUUAUUAUUAUUUAUCCCUAUUUAUAUUUAUUGUUAUUGUUAUUGUUAUA (ssRNA) [50 nt RNA], for which, in data set [5], the binding result was “no binding”.
